Data reported in patent US20080057063A1 (published 2008).
Like-named read-outs stand apart in the source and are kept apart here. Blank lines part the entries; values can stand above or below the binder they belong to.

What was measured:
[1] = target: T1, human αVβ6 integrin on cells (human, UniProt P06756 31-1048; P18564 22-788); test: cell-based or functional assay
[2] = target: T2, α4β1 integrin (on J6.77 cells) (UniProt P13612 34-1032; P05556 21-798, limits assumed); test: cell-based or functional assay
[3] = target: T3, α5β1 integrin (on K562 cells) (UniProt P08648 42-1049; P05556 21-798, limits assumed); test: cell-based or functional assay
T3 sequence (P08648 42-1049 limits assumed, chain 1 of 2): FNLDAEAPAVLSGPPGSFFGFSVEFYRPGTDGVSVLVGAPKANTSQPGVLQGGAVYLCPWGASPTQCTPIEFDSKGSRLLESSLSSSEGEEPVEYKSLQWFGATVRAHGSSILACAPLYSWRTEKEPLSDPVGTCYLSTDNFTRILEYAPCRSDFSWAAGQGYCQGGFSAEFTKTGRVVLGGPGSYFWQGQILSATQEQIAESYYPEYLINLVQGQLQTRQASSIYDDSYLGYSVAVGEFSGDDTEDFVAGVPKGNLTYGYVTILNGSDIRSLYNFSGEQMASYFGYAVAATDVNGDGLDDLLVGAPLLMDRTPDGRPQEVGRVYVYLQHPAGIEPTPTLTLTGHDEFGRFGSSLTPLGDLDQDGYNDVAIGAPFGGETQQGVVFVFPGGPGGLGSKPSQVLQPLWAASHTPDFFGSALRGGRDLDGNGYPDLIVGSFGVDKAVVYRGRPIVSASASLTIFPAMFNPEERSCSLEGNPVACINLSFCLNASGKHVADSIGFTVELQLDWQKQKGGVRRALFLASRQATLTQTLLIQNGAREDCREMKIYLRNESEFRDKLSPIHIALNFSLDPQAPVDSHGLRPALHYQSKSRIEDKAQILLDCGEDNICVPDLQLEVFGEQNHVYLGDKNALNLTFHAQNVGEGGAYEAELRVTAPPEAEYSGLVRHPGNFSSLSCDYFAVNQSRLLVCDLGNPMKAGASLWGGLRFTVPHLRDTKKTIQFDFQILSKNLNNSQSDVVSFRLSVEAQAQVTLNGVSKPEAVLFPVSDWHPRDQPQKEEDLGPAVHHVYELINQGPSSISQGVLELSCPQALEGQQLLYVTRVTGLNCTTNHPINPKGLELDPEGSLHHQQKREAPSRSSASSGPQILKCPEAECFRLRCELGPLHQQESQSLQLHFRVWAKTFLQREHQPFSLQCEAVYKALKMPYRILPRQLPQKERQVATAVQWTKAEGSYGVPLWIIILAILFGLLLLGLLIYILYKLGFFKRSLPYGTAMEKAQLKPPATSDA
T3 sequence (P05556 21-798 limits assumed, chain 2 of 2): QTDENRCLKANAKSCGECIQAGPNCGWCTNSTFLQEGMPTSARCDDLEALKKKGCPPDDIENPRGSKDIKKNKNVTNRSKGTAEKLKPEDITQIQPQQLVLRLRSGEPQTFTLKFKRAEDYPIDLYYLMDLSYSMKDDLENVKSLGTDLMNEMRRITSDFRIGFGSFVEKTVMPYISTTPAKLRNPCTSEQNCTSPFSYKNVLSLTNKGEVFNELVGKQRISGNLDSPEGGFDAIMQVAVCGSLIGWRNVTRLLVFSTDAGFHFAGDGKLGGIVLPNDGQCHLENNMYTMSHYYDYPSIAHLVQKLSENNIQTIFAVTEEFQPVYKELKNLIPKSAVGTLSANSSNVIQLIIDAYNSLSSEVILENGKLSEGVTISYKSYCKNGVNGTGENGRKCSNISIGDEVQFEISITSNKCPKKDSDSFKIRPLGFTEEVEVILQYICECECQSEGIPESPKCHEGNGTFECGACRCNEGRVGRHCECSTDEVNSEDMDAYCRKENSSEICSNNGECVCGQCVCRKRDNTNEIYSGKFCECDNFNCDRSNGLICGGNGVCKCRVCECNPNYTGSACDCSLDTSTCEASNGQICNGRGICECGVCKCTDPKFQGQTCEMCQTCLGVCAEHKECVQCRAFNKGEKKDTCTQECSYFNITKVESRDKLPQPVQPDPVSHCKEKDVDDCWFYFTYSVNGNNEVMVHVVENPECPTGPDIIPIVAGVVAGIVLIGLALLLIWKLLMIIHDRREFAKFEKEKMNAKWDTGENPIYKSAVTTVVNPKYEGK

[4] = target: T1, human αVβ6 integrin on cells; test: FACS, 293T-αVβ6 cells, antibody at 5 ug/ml
[5] = target: T1, human αVβ6 integrin on cells; test: FACS, 293T-αVβ6 cells, antibody at 20 ug/ml
[6] = target: T1, human αVβ6 integrin on cells; test: FACS, 293T-αVβ6 cells, antibody at 1.25 ug/ml
[7] = target: T1, human αVβ6 integrin on cells; test: FACS titration on K562 cells expressing human αVβ6 (as Example 18)
[8] = target: T1, human αVβ6 integrin on cells; test: FACS titration on K562 cells expressing human αVβ6 (as Example 18); 95% CI ±15.9 pM
[9] = target: T1, human αVβ6 integrin on cells; test: cell-based or functional assay; remark: listed apart in the source
[10] = target: T1, human αVβ6 integrin on cells; test: cell-based or functional assay; remark: listed apart in the source
[11] = target: T2, α4β1 integrin (on J6.77 cells); test: cell-based or functional assay; remark: listed apart in the source
[12] = target: T3, α5β1 integrin (on K562 cells); test: cell-based or functional assay; remark: listed apart in the source
[13] = target: T4, cynomolgus αVβ6 on cells (cynomolgus, UniProt A0A2K5WCD3 31-1048; A0A2K5TZ36 22-787); test: FACS, HEK-293 transfected with cynomolgus αV and β6
T4 construct: whole, on cells; also called macaque αVβ6; Mac AVB6

[14] = target: T1, human αVβ6 integrin on cells; test: FMAT, HEK 293 cells overexpressing αVβ6, supernatant
[15] = target: T1, human αVβ6 integrin on cells; test: FACS titration on K562 cells expressing human αVβ6; 95% CI ±22.7 pM
[16] = target: T5, soluble αVβ6 (human, UniProt P06756 31-992; P18564 22-709); test: Biacore, mAb captured on anti-human IgG, soluble αVβ6 injected, 1:1 fit
T5 construct: extracellular domain; also called soluble αVβ6 protein; soluble antigen

[17] = target: T6, human αV on parental A375M cells, which express αVβ3 and αVβ5, but not αVβ6 (human, UniProt P06756 31-1048); test: cell-based or functional assay
T6 sequence (P06756 31-1048 A375M): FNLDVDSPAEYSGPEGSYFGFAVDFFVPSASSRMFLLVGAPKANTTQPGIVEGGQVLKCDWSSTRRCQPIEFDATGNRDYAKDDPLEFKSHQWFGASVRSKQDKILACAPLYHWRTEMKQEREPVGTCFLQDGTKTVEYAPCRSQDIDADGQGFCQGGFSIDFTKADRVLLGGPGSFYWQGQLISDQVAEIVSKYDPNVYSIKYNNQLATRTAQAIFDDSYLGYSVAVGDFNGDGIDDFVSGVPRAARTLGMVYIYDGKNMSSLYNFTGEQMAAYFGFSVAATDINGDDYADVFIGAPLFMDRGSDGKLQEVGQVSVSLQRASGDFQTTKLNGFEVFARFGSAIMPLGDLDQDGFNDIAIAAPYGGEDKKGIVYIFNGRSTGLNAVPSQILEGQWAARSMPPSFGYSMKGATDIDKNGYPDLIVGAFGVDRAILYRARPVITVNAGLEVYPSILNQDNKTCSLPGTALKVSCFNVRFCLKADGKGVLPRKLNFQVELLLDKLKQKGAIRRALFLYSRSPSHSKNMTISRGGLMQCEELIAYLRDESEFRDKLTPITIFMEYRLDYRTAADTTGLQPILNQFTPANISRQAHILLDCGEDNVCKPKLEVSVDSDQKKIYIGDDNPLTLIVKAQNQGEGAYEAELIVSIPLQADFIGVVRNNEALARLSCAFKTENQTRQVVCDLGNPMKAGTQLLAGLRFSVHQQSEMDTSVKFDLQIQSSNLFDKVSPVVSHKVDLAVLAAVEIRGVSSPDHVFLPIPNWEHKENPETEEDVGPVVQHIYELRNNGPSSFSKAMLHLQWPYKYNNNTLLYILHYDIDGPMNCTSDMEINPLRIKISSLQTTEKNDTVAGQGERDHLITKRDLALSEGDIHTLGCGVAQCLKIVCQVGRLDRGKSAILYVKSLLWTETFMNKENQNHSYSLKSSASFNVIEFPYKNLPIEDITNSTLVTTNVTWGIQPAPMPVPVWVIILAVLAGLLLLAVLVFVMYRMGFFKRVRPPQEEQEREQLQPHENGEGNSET

[18] = target: T6, human αV on parental A375M cells, which …; test: FACS, parental A375M cells (αVβ3, αVβ5)
[19] = target: T7, mouse αV (HEK-293 cells transfected with mouse αV alone) (mouse, UniProt P43406 31-1044); test: FACS, HEK-293 transfected with mouse αV
T7 construct: whole, on cells; Single chain transfected into HEK-293 cells; also called Mouse alphaV
T7 sequence (P43406 31-1044): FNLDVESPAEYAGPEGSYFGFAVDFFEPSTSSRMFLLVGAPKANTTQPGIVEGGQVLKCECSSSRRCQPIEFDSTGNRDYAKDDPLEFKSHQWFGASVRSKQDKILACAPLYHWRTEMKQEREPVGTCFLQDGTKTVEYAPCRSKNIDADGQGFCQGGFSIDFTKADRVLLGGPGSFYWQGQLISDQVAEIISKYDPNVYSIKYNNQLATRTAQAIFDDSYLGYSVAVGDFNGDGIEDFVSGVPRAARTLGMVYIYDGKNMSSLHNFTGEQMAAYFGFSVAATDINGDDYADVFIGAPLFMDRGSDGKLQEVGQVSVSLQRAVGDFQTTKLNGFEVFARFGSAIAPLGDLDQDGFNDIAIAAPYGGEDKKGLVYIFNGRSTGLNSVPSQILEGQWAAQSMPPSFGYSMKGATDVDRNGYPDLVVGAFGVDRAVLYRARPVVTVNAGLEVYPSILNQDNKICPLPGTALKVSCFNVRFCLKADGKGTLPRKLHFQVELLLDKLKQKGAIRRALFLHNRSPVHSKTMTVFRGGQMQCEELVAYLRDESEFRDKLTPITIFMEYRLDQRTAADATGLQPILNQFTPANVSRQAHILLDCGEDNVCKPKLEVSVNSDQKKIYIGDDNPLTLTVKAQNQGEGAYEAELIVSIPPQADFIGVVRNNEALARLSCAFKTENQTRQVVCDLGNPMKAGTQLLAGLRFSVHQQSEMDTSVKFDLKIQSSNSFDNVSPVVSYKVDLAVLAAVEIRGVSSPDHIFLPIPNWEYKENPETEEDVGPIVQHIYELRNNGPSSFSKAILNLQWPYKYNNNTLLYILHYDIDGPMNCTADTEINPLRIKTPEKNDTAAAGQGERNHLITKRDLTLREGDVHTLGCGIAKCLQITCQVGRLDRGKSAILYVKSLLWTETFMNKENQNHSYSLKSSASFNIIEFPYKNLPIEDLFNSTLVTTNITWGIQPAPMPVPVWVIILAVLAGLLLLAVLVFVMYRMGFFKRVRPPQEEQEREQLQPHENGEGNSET

T1 sequence (P06756 31-1048, chain 1 of 2): as the sequence (P06756 31-1048 A375M) above, with M345A counted along it
T1 sequence (P18564 22-788, chain 2 of 2): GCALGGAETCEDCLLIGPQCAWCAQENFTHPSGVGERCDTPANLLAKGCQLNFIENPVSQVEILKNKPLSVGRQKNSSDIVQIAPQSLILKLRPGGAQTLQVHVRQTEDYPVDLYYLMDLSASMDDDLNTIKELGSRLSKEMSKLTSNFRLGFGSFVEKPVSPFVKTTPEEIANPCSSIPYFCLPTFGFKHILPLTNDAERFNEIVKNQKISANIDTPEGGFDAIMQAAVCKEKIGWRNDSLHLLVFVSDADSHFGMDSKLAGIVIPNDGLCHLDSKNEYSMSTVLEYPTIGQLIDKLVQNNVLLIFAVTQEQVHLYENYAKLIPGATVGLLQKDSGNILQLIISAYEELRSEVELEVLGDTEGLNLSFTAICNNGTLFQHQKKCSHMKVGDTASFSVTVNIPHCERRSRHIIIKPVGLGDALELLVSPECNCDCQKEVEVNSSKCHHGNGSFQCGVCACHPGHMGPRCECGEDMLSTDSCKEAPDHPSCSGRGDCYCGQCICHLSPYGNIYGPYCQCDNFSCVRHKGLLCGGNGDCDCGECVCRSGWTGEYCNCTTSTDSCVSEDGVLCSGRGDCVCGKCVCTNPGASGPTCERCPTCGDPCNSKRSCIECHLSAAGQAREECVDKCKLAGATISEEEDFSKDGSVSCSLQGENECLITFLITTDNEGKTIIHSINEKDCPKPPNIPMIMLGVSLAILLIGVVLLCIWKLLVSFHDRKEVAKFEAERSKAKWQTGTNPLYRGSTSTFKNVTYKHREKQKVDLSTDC

IC50, n = 1 (HT29 adhesion to TGFβLAP) [1]: 0.013 mg/L
IC50, n = 2 (HT29 adhesion to TGFβLAP) [1]: 0.013 mg/L
IC50, n = 3 (HT29 adhesion to TGFβLAP) [1]: 0.039 mg/L
Percent Inhibition (J6.77 adhesion to CS-1 peptide of fibronectin, 5 ug/ml) [2]: -2%
% Inhibition (K562 adhesion to fibronectin) [3]: 6%
Geometric Mean Shift [4]: 6840
Geometric Mean Shift [5]: 7240
Geometric Mean Shift [6]: 4890
Kd [7]: < 0.05 nM
Kd [8]: 0.0463 nM
B1: sc 264 RAD (antibody, V domains shown)
VH: QVQLQESGPGLVKPSQTLSLTCTVSGGSISSGGYYWSWIRQHPGKGLEWIGYIYYSGRTYNNPSLKSRVTISVDTSKNQFSLKLSSVTAADTAVYYCARVATGRADYHFYAMDVWGQGTTVTVSS
VL: SYELTQPSSVSVSPGQTARITCSGDVLAKKSARWFHQKPGQAPVLVIYKDSERPSGIPERFSGSSSGTTVTLTISGAQVEDEAAYYCYSAADNNLVFGGGTKLTVL
notes: Variable domains only

Assay 1 % Inhibition (HT29 adhesion to TGFβLAP) [9]: 99%
Assay 2 % Inhibition (HT29 adhesion to TGFβLAP) [9]: 103%
Average % Inhibition (HT29 adhesion to TGFβLAP) [9]: 101%
Estimated IC50, n = 1 (HT29 adhesion to TGFβLAP) [10]: 0.041 mg/L
Estimated IC50, n = 2 (HT29 adhesion to TGFβLAP) [10]: 0.026 mg/L
Percent Inhibition (J6.77 adhesion to CS-1 peptide of fibronectin, 5 ug/ml) [11]: -10%
Percent Inhibition (K562 adhesion to FN9-10 peptide of fibronectin, 5 µg/ml) [12]: 5%
IC50, n = 1 (HT29 adhesion to TGFβLAP) [1]: 0.125 mg/L
IC50, n = 2 (HT29 adhesion to TGFβLAP) [1]: 0.157 mg/L
IC50, n = 3 (HT29 adhesion to TGFβLAP) [1]: 0.064 mg/L
Percent Inhibition (J6.77 adhesion to CS-1 peptide of fibronectin, 5 ug/ml) [2]: 2%
% Inhibition (K562 adhesion to fibronectin) [3]: -5%
GeoMean [13]: 23.9
FMAT Count [14]: 127
FMAT FL1 [14]: 628
FMAT FL1 × Count [14]: 79800
Kd [15]: 0.0519 nM
Kd [16]: 21.2 nM
B2: sc 188 (antibody, V domains shown)
VH: QVQLQESGPGLVKPSQTLSLTCTVSGGSISSGVYYWTWIRQHPGNGLEWIGYIYYSGSTSYNPSLKSRVTISVDTSKKQFSLNLTSVTAADTAVYYCAREGPLRGDYYYGLDVWGQGTTVTVSS
VL: EIVLTQSPGTLSLSPGERATLSCRAGQTISSRYLAWYQQKPGQAPRPLIYGASSRATGIPDRFSGSGSGTDFTLTISRLEPEDFAVYYCQQYGSSPRTFGQGTKVEIK

Percent Inhibition (A375M adhesion to osteopontin peptide, 5 µg/ml) [17]: 3%
Percent Inhibition (J6.77 adhesion to CS-1 peptide of fibronectin, 5 ug/ml) [11]: -15%
Percent Inhibition (K562 adhesion to FN9-10 peptide of fibronectin, 5 µg/ml) [12]: -12%
% Cells Shifted [18]: 24%
GeoMean [18]: 1.79
percent of cells shifted [19]: 4%
B3: sc 133 (antibody, V domains shown)
VH: QVQLVQSGAEVKKPGASVKVSCKASGYTFTGYYMHWVRQAPGQGLEWMGWINPKSGDTNYAQKFQGRVTLTRDTSTSTAYMELSRLRSDDTAVYYCARRLDVWGQGTTVTVSS
VL: QSVLTQPPSVSAAPGQKVTISCSGSSSNIGNNYVSWYQQLPGTAPKLLIYDNNKRPSGIPDRFSGSKSGTSATLGITGLQTGDEADYYCGTWNSSLSAGYVFGTGTKVTV
